# Measurements reported in the supplement of paper PMC10567573.
# B1: TNNI2 (parent)
# chain: DWRKNIEEKSGMEGRKKMFESES
# Variants of: B1
# Assay: protein stability index of a GFP-peptide fusion (GPS, HEK-293T) (PSI 1-6); higher = more stable
# Details: c terminus: native
# 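Note: lentivirally expressed fusions sorted by FACS into six bins by GFP to DsRed ratio, PSI derived from sequencing read proportions per bin multiplied by bin number.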
row,Variant,protein stability index
1,DWRKNIEEKSGQEGRKKMFESES [M12Q],2.02
2,DWRKNIEEKSGREGRKKMFESES [M12R],2.74
3,DWRKNIEEKSGSEGRKKMFESES [M12S],2.5
4,DWRKNIEEKSGTEGRKKMFESES [M12T],3.47
5,DWRKNIEEKSGVEGRKKMFESES [M12V],2.39
6,DWRKNIEEKSGWEGRKKMFESES [M12W],1.39
7,DWRKNIEEKSGYEGRKKMFESES [M12Y],2.94
8,DWRKNIEEKSGMAGRKKMFESES [E13A],2.01
9,DWRKNIEEKSGMCGRKKMFESES [E13C],2.78
10,DWRKNIEEKSGMDGRKKMFESES [E13D],2.52
11,DWRKNIEEKSGMFGRKKMFESES [E13F],1.73
12,DWRKNIEEKSGMGGRKKMFESES [E13G],3.41
13,DWRKNIEEKSGMHGRKKMFESES [E13H],2.19
14,DWRKNIEEKSGMKGRKKMFESES [E13K],2.94
15,DWRKNIEEKSGMLGRKKMFESES [E13L],2.47
16,DWRKNIEEKSGMMGRKKMFESES [E13M],2.03
17,DWRKNIEEKSGMNGRKKMFESES [E13N],2.75
18,DWRKNIEEKSGMPGRKKMFESES [E13P],2.34
19,DWRKNIEEKSGMQGRKKMFESES [E13Q],2.03
20,DWRKNIEEKSGMRGRKKMFESES [E13R],2.72
21,DWRKNIEEKSGMSGRKKMFESES [E13S],1.77
22,DWRKNIEEKSGMTGRKKMFESES [E13T],3.7
23,DWRKNIEEKSGMVGRKKMFESES [E13V],2.33
24,DWRKNIEEKSGMWGRKKMFESES [E13W],1.81
25,DWRKNIEEKSGMYGRKKMFESES [E13Y],2.15

row,Variant,protein stability index
1,DWRKNIEEKSGMEARKKMFESES [G14A],1.43
2,DWRKNIEEKSGMECRKKMFESES [G14C],2.56
3,DWRKNIEEKSGMEDRKKMFESES [G14D],1.67
4,DWRKNIEEKSGMEERKKMFESES [G14E],1.38
5,DWRKNIEEKSGMEFRKKMFESES [G14F],1.93
6,DWRKNIEEKSGMEHRKKMFESES [G14H],1.94
7,DWRKNIEEKSGMEIRKKMFESES [G14I],1.6
8,DWRKNIEEKSGMEKRKKMFESES [G14K],1.31
9,DWRKNIEEKSGMEMRKKMFESES [G14M],1.99
10,DWRKNIEEKSGMENRKKMFESES [G14N],2.22
11,DWRKNIEEKSGMEPRKKMFESES [G14P],2.56
12,DWRKNIEEKSGMERRKKMFESES [G14R],2.55
13,DWRKNIEEKSGMESRKKMFESES [G14S],1.63
14,DWRKNIEEKSGMETRKKMFESES [G14T],1.41
15,DWRKNIEEKSGMEVRKKMFESES [G14V],1.08
16,DWRKNIEEKSGMEWRKKMFESES [G14W],2.78
17,DWRKNIEEKSGMEGAKKMFESES [R15A],2.59
18,DWRKNIEEKSGMEGDKKMFESES [R15D],2.44
19,DWRKNIEEKSGMEGEKKMFESES [R15E],2.8
20,DWRKNIEEKSGMEGFKKMFESES [R15F],1.62
21,DWRKNIEEKSGMEGGKKMFESES [R15G],1.76
22,DWRKNIEEKSGMEGHKKMFESES [R15H],2.15
23,DWRKNIEEKSGMEGIKKMFESES [R15I],1.71
24,DWRKNIEEKSGMEGKKKMFESES [R15K],3.5
25,DWRKNIEEKSGMEGLKKMFESES [R15L],2.56

row,Variant,protein stability index
1,DWRKNIEEKSGMEGMKKMFESES [R15M],1.51
2,DWRKNIEEKSGMEGNKKMFESES [R15N],2.77
3,DWRKNIEEKSGMEGPKKMFESES [R15P],2.98
4,DWRKNIEEKSGMEGQKKMFESES [R15Q],3.12
5,DWRKNIEEKSGMEGTKKMFESES [R15T],2.7
6,DWRKNIEEKSGMEGYKKMFESES [R15Y],2.15
7,DWRKNIEEKSGMEGRCKMFESES [K16C],2.19
8,DWRKNIEEKSGMEGRDKMFESES [K16D],3.19
9,DWRKNIEEKSGMEGREKMFESES [K16E],2.39
10,DWRKNIEEKSGMEGRGKMFESES [K16G],1.78
11,DWRKNIEEKSGMEGRHKMFESES [K16H],1.85
12,DWRKNIEEKSGMEGRIKMFESES [K16I],1.83
13,DWRKNIEEKSGMEGRLKMFESES [K16L],2.85
14,DWRKNIEEKSGMEGRMKMFESES [K16M],1.92
15,DWRKNIEEKSGMEGRNKMFESES [K16N],1.95
16,DWRKNIEEKSGMEGRPKMFESES [K16P],2.72
17,DWRKNIEEKSGMEGRQKMFESES [K16Q],2.19
18,DWRKNIEEKSGMEGRRKMFESES [K16R],2.3
19,DWRKNIEEKSGMEGRSKMFESES [K16S],1.98
20,DWRKNIEEKSGMEGRTKMFESES [K16T],2.07
21,DWRKNIEEKSGMEGRVKMFESES [K16V],2.32
22,DWRKNIEEKSGMEGRWKMFESES [K16W],1.85
23,DWRKNIEEKSGMEGRYKMFESES [K16Y],1.24
24,DWRKNIEEKSGMEGRKAMFESES [K17A],2.25
25,DWRKNIEEKSGMEGRKCMFESES [K17C],2.41

row,Variant,protein stability index
1,DWRKNIEEKSGMEGRKDMFESES [K17D],2.83
2,DWRKNIEEKSGMEGRKEMFESES [K17E],2.36
3,DWRKNIEEKSGMEGRKFMFESES [K17F],2.48
4,DWRKNIEEKSGMEGRKHMFESES [K17H],3.84
5,DWRKNIEEKSGMEGRKIMFESES [K17I],3.32
6,DWRKNIEEKSGMEGRKLMFESES [K17L],2.01
7,DWRKNIEEKSGMEGRKMMFESES [K17M],2.42
8,DWRKNIEEKSGMEGRKNMFESES [K17N],2.56
9,DWRKNIEEKSGMEGRKPMFESES [K17P],3.08
10,DWRKNIEEKSGMEGRKQMFESES [K17Q],2.39
11,DWRKNIEEKSGMEGRKRMFESES [K17R],1.97
12,DWRKNIEEKSGMEGRKSMFESES [K17S],2.82
13,DWRKNIEEKSGMEGRKTMFESES [K17T],2.39
14,DWRKNIEEKSGMEGRKVMFESES [K17V],3.07
15,DWRKNIEEKSGMEGRKYMFESES [K17Y],2.6
16,DWRKNIEEKSGMEGRKKAFESES [M18A],2.26
17,DWRKNIEEKSGMEGRKKCFESES [M18C],3.89
18,DWRKNIEEKSGMEGRKKDFESES [M18D],6
19,DWRKNIEEKSGMEGRKKEFESES [M18E],4.34
20,DWRKNIEEKSGMEGRKKGFESES [M18G],5.42
21,DWRKNIEEKSGMEGRKKHFESES [M18H],2.7
22,DWRKNIEEKSGMEGRKKIFESES [M18I],1.98
